Experimental data from KR20240072325A (dated 2024).
Where a chain is given by its changes, count along the chain named. “And” between values parts separate entries of the source, which are not always exact repeats. Equal entries are not always repeated.

B1: Anti-SP2에서 발현된 Fv-변이체 (expressed Fv-variant of Anti-SP2, fusion protein with sfGFP and His-tag) (other)
chain: EVQLVESAAEVRRPGASVKITCKASGYSFSTYGIQWMRQAPGQRPEWLGWIHAGTGGTKYSRKFQGRITITRDTSANTVYLDLNSLTSEDTAVYYCARCLRQAGTADDVWGQGTTVTVSS
B2: Anti-SP1에서 발현된 Fv-변이체 (expressed Fv-variant of Anti-SP1, fusion protein with sfGFP and His-tag) (other)
chain: B1 chain with C99G, L100R, R101T, Q102T, A103G, G104N, T105D, A106R, D107P, V109Y

Target: SARS-CoV-1 스파이크 단백질 (SARS-CoV-1 spike protein, SP) (SARS-CoV-1, UniProt P59594 14-1195)

Binder | Kd
B1 | 16.2 nM and 42.2 nM
B2 | 41.7 nM and 14.1 nM
